PMC10344781
Blank lines part the entries; values can stand above or below the binder they belong to.

Target: T1, single-chain mouse Trp2/H2-K^b (scpMHC), biotinylated (mouse | not stated)
T1 chain 1: SVYDFFVWL
T1 chain 2: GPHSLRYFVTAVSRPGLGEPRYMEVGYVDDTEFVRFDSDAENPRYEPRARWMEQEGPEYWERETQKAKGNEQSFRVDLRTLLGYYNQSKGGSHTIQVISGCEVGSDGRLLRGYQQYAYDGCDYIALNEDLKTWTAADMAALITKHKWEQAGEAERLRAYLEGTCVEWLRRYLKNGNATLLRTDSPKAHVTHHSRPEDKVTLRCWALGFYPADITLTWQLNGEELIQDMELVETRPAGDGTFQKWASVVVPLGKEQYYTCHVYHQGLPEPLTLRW
T1 chain 3: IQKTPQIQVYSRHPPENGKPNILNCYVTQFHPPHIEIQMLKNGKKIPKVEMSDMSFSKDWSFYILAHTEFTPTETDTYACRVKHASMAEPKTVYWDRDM
Test: SPR
Settings: modification not given, biotin on the biotinylation tag (BirA)

Kd: 2.5 nM | koff: 0.00143 s⁻¹
B1: mIgG2a clone 13 (wild-type mIgG2a) (protein)
chain 1: EVLLQQSGPELVKPGASVKIPCKASGYTFTDYYMDWVKQSHGKSLEWIGLINPNNGGTVYNQKFKGKATLTVDKSSSAAYMEVRSLTSEDTAVYYCARKPYTGHPAWFAYWGQGTLVTVSA
chain 2: DIQVTQSSSSFSVSLGDRVTITCKASEDIYNRLAWYQQKPGNAPRLLISGATSLETGVPDRFSGSGSRKDYTLIITSLQTEDVATYYCQQYYAFPLTFGAGTKLELK

Kd (scFv): 8.6 nM | koff (scFv): 0.00121 s⁻¹
B2: purified scFv13 (Trp2/H2-K^b TCRm scFv clone 13) (protein)
chain 1: B1 chain 1
chain 2: B1 chain 2
